The term EC50 (read off the curve) denotes the concentration needed to bring the measured effect to its halfway point.

In assay [1] the target is recombinant nucleoprotein derived from influenza viruses subtype A H1N1 (Sino Biological, 11675-[change]) (influenza virus type A H1N1).
Assay [2] has as its target recombinant nucleoprotein derived from influenza viruses subtype A H3N2 (Sino Biological, 40208-[change]) (influenza virus type A H3N2).

Chain of recombinant nucleoprotein derived from influenza viruses subtype A H1N1 (Sino Biological, 11675-[change]) (influenza virus type A H1N1) (P03466 whole entry): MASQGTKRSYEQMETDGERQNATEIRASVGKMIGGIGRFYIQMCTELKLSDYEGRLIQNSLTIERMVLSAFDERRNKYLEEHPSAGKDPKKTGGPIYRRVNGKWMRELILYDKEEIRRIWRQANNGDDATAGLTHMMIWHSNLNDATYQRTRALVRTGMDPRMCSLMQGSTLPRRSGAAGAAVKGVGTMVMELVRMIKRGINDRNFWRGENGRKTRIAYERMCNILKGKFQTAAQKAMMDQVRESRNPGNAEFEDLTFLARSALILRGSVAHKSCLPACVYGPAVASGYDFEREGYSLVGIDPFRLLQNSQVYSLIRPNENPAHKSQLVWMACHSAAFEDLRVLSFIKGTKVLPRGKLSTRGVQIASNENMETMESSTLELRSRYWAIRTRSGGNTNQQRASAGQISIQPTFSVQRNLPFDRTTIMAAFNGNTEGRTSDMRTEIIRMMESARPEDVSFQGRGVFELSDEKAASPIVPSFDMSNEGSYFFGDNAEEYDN

B1: VHH antibody consisting of the amino acid sequence represented by SEQ ID NO: 08 (VHH)
VHH: QVQLVESGGGLVQAGGSLRLSCAASRTIFNPNVMGWYRQAPGKQRELVADISLSGSTNYADSVKGRFTISRDNAKNTMYLQMNSLKPEDTAVYYCNTNAISGAPGRYWGQGTQVTVSS
For B1, the EC50 (read off the curve) in assay [1] is 0.004 µg/mL; in assay [2], 0.03 µg/mL.

(Values after patent US20170349647A1.)
